This note sets out measurements from US20030108554A1 (published 2003).

Series [1] deals with T1, pol κ (UniProt Q9UBT6 1-870).
T1 construct: Tested in yeast two-hybrid (GAL4 domain fusion); also called primary protein product of the POLK
T1 sequence (looked up): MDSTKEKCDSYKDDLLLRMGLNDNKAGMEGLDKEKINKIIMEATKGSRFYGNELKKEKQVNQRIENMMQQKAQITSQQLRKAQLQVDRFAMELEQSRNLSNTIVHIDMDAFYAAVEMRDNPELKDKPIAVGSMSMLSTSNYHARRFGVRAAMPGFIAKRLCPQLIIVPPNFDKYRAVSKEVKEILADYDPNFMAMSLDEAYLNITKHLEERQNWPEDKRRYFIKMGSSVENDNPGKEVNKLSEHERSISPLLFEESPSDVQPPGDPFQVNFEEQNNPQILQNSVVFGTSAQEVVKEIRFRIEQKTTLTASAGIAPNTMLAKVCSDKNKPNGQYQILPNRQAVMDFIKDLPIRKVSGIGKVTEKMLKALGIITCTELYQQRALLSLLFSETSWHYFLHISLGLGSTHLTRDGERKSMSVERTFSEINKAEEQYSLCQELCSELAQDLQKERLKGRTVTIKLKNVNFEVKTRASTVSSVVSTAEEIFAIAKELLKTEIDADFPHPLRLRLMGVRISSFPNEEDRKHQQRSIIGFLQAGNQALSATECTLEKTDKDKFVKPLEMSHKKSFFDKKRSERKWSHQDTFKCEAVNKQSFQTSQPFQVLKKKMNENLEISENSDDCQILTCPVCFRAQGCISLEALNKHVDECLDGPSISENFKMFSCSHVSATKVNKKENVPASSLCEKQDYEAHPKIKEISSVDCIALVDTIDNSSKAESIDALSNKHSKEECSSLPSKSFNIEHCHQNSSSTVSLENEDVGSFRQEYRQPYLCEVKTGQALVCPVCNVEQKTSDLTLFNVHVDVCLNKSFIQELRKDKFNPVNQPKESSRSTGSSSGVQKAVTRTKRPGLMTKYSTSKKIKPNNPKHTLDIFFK
The series can be described thus: yeast two-hybrid.

For series [2], the target named is T2, Goodpasture antigen binding protein (GPBP) (UniProt Q9Y5P4 1-624).
T2 construct: Protein kinase; Fusion parts are not written as pieces
T2 sequence (looked up): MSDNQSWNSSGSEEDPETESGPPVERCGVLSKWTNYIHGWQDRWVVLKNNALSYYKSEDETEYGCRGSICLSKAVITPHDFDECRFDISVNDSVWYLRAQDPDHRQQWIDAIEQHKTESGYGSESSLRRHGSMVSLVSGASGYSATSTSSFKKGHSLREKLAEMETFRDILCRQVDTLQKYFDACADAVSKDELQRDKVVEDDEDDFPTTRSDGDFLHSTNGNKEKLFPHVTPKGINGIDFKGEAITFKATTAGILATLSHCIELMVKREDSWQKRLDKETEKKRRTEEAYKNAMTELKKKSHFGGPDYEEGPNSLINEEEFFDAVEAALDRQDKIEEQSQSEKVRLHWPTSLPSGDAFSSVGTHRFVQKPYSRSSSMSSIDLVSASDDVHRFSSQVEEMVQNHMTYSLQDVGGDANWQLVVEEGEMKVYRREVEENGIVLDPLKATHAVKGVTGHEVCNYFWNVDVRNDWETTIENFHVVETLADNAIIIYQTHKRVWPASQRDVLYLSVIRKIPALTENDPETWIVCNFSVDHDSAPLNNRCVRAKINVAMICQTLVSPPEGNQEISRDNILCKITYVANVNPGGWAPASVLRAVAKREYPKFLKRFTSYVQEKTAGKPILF
The series is described as follows: yeast two-hybrid, β-galactosidase colony lift. The protocol: Deletion mutants were obtained using specific primers and PCR, followed by cloning of the resulting cDNAs in the pGBT9 and pGAD424 vectors. The assays were performed in SFY526 or HF7c Saccharomyces cerevisiae strains, with pGBT9 as GAL4 binding domain vector and pGAD424 as GAL4 activation domain vector, by the lift colony assay procedure. Briefly, the yeast cells were co-transformed with constructs of both binding domain and activation domain vectors, and the co-transformants were selected in medium deficient in both tryptophan and leucine. After five days of incubation at 30° C. the colonies were tested for the expression of β-galactosidase with X-Gal substrate (0.75 mg/ml). […] When the assays were performed with the HF7c strain, the interactions were assessed by the lift colony assay procedure and by growth in medium deficient in histidine, tryptophan and leucine. For yeast three-hybrid system, we used the pBRIDGE vector, which allows the conditional expression of a third protein apart from the usual GAL4 binding and activation domain-fusion proteins of the two-hybrid system. In this case, the expression of GPBP or I-20 or GIP90 was driven by Met25 promoter, active in absence of methionine. In these experiments, the transformed SFY526 cells were plated in medium deficient in tryptophan, leucine and methionine, and subjected to the colony lift assay after five days at 30° C. […]

Series [3] deals with the molecule itself. The series can be described thus: yeast two-hybrid with I-20 deletion mutants. How it is done:
The production of additional I-20 deletion mutants and their use in specific two hybrid studies permitted the identification of two specific regions of I-20 that are essential for GPBP interaction as well as the identification of other residues directly involved but not essential for the interaction (FIG. 4).
Deletion mutants were obtained using specific primers and PCR, followed by cloning of the resulting cDNAs in the pGBT9 and pGAD424 vectors. The assays were performed in SFY526 or HF7c Saccharomyces cerevisiae strains, with pGBT9 as GAL4 binding domain vector and pGAD424 as GAL4 activation domain vector, by the lift colony assay procedure. Briefly, the yeast cells were co-transformed with constructs of both binding domain and activation domain vectors, and the co-transformants were selected in medium deficient in both tryptophan and leucine. After five days of incubation at 30° C. the colonies were tested for the expression of β-galactosidase with X-Gal substrate (0.75 mg/ml). […] When the assays were performed with the HF7c strain, the interactions were assessed by the lift colony assay procedure and by growth in medium deficient in histidine, tryptophan and leucine.

Series [4] concerns the target T2, Goodpasture antigen binding protein …. The series is described as follows: yeast two-hybrid.

B1: I-20 (other)
chain: RDEVIGILKAEKMDLALLEAQYGFVTPKKVLEALQRDAFQAKSTPWQEDIYEKPMNELDKVVEKHKESYRRILGQLLVAEKSRRQTILELEEEKRKHKEYMEKSDEFICLLEQECERLKKLIDQEIKSQEEKEQEKEKRVTTLKEELTKLKSFALMVVDEQQRLTAQLTLQRQKIQELTTNAKETHTKLALAEARVQEEEQKATRLEKELQTQTTKFHQDQDTIMAKLTNEDSQNRQLQQKLAALSRQIDELEETNRSLRKAEEE
notes: Tested as GAL4 domain fusion in yeast two-hybrid and three-hybrid; fusion parts are not written as pieces; also called 265 residue polypeptide I-20
In the case of B1, the binding result in series [1] is “no binding”; in series [2] it was “binds”; in series [3], “binds”.

B2: GIP90 with deletion of the N terminal 240-residues (other)
chain: MVVDEQQRLTAQLTLQRQKIQELTTNAKETHTKLALAEARVQEEEQKATRLEKELQTQTTKFHQDQDTIMAKLTNEDSQNRQLQQKLAALSRQIDELEETNRSLRKAEEELQDIKEKISKGEYGNAGIMAEVEELRKRVLDMEGKDEELIKMEEQCRDLNKRLERETLQSKDFKLEVEKLSKRIMALEKLEDAFNKSKQECYSLKCNLEKERMTTKQLSQELESLKVRIKELEAIESRLEKTEFTLKEDLTKLKTLTVMFVDERKTMSEKLKKTEDKLQAASSQLQVEQNKVTTVTEKLIEETKRALKSKTDVEEKMYSVTKERDDLKNKLKAEEEKGNDLLSRVNMLKNRLQSLEAIEKDFLKNKLNQDSGKSTTALHQENNKIKELSQEVERLKLKLKDMKAIEDDLMKTEDEYETLERRYANERDKAQFLSKELEHVKMELAKYKLAEKTETSHEQWLFKRLQEEEAKSGHLSREVDALKEKIHEYMATEDLICHLQGDHSVLQKKTKSTRKQEQRFRKRD
notes: Deletion mutant in yeast two-hybrid (GAL4 domain fusion)
For B2, in series [4], the binding result is listed as “no binding”.
